One test deals with T1, PMEL17 (Homo sapiens, UniProt P40967).
T1 sequence (P40967 25-661): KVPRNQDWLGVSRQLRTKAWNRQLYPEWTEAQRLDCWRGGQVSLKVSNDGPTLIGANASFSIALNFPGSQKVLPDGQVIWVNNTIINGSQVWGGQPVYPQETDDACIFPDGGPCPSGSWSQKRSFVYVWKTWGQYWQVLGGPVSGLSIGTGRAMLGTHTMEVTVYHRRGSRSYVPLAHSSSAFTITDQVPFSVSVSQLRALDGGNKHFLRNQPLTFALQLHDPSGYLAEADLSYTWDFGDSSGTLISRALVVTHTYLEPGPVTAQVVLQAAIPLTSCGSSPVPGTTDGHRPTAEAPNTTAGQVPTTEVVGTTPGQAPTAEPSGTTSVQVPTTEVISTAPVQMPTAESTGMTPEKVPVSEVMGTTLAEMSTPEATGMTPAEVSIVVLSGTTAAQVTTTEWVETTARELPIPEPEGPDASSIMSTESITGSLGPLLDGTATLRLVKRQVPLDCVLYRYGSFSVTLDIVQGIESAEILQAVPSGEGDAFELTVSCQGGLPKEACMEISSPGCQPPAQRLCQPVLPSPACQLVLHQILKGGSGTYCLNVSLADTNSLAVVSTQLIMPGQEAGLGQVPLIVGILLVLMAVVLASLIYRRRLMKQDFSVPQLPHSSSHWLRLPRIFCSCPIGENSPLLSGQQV
Briefly: Species cross-reactivity by FACS, 293S cells stably transfected with gD tagged PMEL17. Also on record: gD tag (N); expressed in transfected cells. The note with it: 10 μg/ml antibody. In kind it is binding. As for the experimental part:
(§1) Antibody 17A9 was tested to determine if it cross-reacts with PMEL17 from species other than human. […] All of the sequences include the signal sequence except for the cynomolgus monkey PMEL17. Residues that are identical among all four species are indicated by asterisks (*). In the region where the rat sequence has a deletion, residues that are identical among the remaining three species are indicated by a plus (+). Binding to each species of PMEL17 was determined by FACS analysis using 293S cells stably transfected with an N-terminal gD tagged PMEL17 (human, cynomolgus monkey, rat, or mouse PMEL17); stained with 10 μg/ml 17A9 antibody; and detected with R-Phycoerythrin conjugated goat anti-mouse antibody.
(In general: In flow cytometry, cells or beads pass a laser one at a time.)

In the next test the test system is normal human melanocytes. Kind of test: Toxicity of anti-PMEL17 ADC in normal melanocytes (CellTiter-GloII, five days). It counts as cell-based. The note with it: versus SK-MEL-5 and SK-MEL-23, five days. How it is done: Finally, SK-MEL-5 and SK-MEL-23 melanoma cells, or normal human melanocytes, were incubated with serial dilutions of the 17A9 ADC and five days later cell numbers were determined using CellTiter-GloII.
A general note: In ATP-based viability assays light output follows the ATP content of the culture.

A further test relates to 1300mel melanoma cells. Kind of test: Internalization of anti-PMEL17 antibody, co-staining with lysosomal marker LAMP1. It counts as cell-based.
In the next test the test system is 928mel cells. Kind of test: Live cell staining and FACS with directly labeled antibodies. In kind it is cell-based. The text has this:
The predominance of the N-terminal epitope at the cell surface relative to the cytoplasmic epitope is consistent with stronger FACS signals observed with 17A9 over 77E6. Nevertheless, it appears that some portion of the cytoplasmic region is present at the cell surface to account for the FACS signals observed with 77E6. To address this, live cells were reacted with the 77E6 and 17A9 antibodies that were directly labeled with Alexa Fluors 555 and 488, respectively. […] The binding of the individual antibodies was unaffected by the presence of the other antibody. […] Further, although 17A9 stained all cells uniformly and consistently, 77E6 staining was variable from cell to cell and the overall degree of staining varied across preparations. […] Overall, the uniform and intense reactivity of 17A9 on melanoma cells makes this antibody a good candidate for drug conjugation.

The next test has as its system rat PMEL17. Briefly: Species cross-reactivity by FACS, 293S cells stably transfected with gD tagged PMEL17. The conditions noted are these: 10 μg/ml antibody. It counts as binding. How it is done:
as §1

The target of another test is T2, mouse PMEL17 (Mus musculus, UniProt Q60696).
T2 construct: gD tag (N); expressed in transfected cells
T2 sequence (Q60696 24-626): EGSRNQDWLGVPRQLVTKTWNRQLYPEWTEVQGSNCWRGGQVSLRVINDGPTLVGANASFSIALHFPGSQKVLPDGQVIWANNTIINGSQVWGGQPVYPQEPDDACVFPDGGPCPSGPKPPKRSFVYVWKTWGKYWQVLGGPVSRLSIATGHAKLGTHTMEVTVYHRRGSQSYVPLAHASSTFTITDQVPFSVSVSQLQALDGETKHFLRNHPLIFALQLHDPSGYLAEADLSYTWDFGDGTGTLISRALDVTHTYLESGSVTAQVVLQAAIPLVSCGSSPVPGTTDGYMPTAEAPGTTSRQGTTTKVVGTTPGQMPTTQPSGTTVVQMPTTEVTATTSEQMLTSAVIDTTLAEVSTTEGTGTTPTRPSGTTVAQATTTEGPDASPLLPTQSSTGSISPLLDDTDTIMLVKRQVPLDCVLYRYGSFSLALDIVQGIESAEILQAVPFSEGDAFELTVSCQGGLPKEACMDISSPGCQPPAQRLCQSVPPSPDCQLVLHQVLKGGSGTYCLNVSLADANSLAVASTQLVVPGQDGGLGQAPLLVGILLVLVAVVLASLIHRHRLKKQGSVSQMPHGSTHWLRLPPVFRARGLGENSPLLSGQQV
The description is as above. It counts as binding. The conditions noted are these: 10 μg/ml antibody. How it is done:
as §1

For the next test, the system named is cynomolgus monkey PMEL17. Described as above. It counts as binding. The note with it: 10 μg/ml antibody. How it is done:
as §1

Experimental findings from US10196454B2, “Anti-PMEL17 antibodies and immunoconjugates” (GENENTECH, INC., priority 2012, dated 2019) are described below.

Chain of cynomolgus monkey PMEL17 (as listed by the source): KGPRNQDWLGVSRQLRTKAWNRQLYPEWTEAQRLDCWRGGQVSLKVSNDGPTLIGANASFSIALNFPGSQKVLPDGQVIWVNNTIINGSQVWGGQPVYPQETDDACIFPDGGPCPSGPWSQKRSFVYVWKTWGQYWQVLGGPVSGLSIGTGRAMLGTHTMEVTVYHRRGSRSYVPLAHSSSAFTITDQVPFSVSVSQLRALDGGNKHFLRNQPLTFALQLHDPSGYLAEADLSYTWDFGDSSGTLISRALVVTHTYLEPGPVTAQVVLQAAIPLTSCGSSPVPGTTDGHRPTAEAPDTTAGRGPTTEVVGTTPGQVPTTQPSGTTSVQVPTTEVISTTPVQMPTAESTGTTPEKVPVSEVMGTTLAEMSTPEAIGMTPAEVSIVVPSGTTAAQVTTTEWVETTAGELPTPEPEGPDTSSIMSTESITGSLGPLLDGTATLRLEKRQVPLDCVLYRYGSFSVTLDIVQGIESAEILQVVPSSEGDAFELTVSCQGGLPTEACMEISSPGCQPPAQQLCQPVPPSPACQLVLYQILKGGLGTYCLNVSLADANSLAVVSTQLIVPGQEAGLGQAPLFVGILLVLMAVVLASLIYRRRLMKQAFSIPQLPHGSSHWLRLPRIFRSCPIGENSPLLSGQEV

B1: 17A9 (antibody, listed as Mus musculus, V domains shown)
VH: EVQLQQSGPELVKPGASMKISCKSSGYSFTRYTMNWVKQSHGKNLEWIGVINPYNGGTVYNQKFKGKATLTVDKSSSTAYMELLSLTSEDSAVYYCARTDYDGYAMDYWGQGTSVTVSS
VL: DVQITQSPSYLAASPGETITINCRATKSISKYLAWYQEQPGKTNNLLIYSGSTLQSGIPSRFSGSGSGTDFTLTISSLEPEDFAMYYCQQHNEYPYTFGSGTKLEIK
As to B1, the “binding to human PMEL17 by FACS” value in the test with PMEL17 is “bind”. Besides, the “IC50 on normal melanocytes relative to melanoma cell lines” value in the test with normal human melanocytes is approximately 100 fold. The “overlap of antibody and LAMP1 staining within the cells” value in the test with 1300mel melanoma cells (2 μg/ml, 2 hours or 20 hours, 37° C.) is on record as “considerable overlap”. Also, in the test with 1300mel melanoma cells (526mel, SK-MEL-5, UACC257), the “uptake into additional PMEL17+ melanoma cell lines” value is reported as “Rapid uptake”. Further, the “binding in the presence of the other labeled antibody (competition)” value with 928mel cells (77E6 and 17A9 alone or both together, FACS) was “unaffected”. Besides, the “cell surface staining of live-labeled cells” value in the test on 928mel cells (Alexa Fluor labeled antibodies) is “uniform cell surface staining”. The “binding to rat PMEL17 by FACS” value with rat PMEL17 is given as “bind”. Further, in the test with mouse PMEL17, the “binding to mouse PMEL17 by FACS” value is on record as “bind”. The “binding to cynomolgus monkey PMEL17 by FACS” value with cynomolgus monkey PMEL17 is on record as “bind”.
